Measurements: patent publication US20250376519A1 (JIANGSU HENGRUI PHARMACEUTICALS, published 2025)

Tests used:
[1] = molecular target: T1, monkey DLL3 protein (screening antigen) (cynomolgus monkey, UniProt Q9NYJ7 27-492 (human entry), limits assumed); assay: phage ELISA
T1 chain: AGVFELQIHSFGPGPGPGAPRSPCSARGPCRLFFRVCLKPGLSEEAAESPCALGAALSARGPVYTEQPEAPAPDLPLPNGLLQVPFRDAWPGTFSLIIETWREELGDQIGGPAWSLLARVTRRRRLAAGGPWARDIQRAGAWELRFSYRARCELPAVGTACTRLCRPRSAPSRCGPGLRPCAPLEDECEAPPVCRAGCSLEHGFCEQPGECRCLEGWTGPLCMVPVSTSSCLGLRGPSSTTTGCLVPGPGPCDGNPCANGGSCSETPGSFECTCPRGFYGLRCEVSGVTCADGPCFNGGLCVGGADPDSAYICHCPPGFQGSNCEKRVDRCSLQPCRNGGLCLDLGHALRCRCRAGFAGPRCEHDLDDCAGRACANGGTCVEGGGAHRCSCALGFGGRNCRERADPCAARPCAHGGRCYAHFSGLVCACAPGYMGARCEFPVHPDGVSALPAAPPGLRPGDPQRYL

[2] = molecular target: T2, human DLL3 protein (screening antigen) (human, UniProt Q9NYJ7 27-492, limits assumed); assay: phage ELISA
T2 construct: Biotinylated in the phage panning
T2 sequence: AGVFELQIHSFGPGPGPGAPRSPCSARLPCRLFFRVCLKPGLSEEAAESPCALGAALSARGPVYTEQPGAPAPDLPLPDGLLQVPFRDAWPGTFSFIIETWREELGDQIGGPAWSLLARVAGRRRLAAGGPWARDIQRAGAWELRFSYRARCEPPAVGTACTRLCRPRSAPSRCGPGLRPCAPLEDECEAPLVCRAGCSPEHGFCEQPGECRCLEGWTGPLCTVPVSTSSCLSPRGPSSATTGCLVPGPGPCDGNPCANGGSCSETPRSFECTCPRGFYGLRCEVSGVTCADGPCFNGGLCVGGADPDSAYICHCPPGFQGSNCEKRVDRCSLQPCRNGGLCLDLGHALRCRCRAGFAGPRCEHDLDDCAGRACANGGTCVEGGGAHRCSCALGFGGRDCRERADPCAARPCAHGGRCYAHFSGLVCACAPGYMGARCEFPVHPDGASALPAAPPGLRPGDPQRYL

[3] = molecular target: T1, monkey DLL3 protein (screening antigen); assay: ELISA, hybridoma supernatant
Experimental: (§1) Spleen lymphocytes and the myeloma cells, Sp2/0 cells (ATCC® CRL-8287™), were fused by following an optimized electrofusion procedure to obtain hybridoma cells. Based on the growth density of hybridoma cells, the hybridoma culture supernatant was assayed using an ELISA method with binding to DLL3 protein and a FACS method with binding to DLL3 CHO-s cells.

human DLL3 on cells [4] = molecular target: T3, human DLL3 on cells (human, UniProt Q9NYJ7 27-618); assay: cell-based or functional assay
T3 sequence: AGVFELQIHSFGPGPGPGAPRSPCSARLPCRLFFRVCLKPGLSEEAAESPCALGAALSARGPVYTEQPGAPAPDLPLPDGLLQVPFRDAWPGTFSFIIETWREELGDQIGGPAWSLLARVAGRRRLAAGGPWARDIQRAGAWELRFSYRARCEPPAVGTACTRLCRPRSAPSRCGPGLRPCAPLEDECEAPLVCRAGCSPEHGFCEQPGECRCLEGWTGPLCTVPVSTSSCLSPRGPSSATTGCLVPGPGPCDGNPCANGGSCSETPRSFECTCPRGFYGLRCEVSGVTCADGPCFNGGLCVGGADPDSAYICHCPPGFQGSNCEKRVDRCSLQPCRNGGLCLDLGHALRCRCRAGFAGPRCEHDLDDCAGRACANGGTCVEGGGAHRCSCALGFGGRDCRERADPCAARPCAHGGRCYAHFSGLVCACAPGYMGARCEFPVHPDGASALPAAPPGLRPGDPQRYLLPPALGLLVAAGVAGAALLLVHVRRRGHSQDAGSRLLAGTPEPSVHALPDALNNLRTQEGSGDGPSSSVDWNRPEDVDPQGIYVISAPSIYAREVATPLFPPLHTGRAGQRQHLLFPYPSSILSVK

[5] = molecular target: T2, human DLL3 protein (screening antigen); assay: ELISA, hybridoma supernatant
Experimental: as §1

human DLL3 on cells [6] = molecular target: T3, human DLL3 on cells; assay: FACS, DLL3 CHO-s cells, hybridoma supernatant
Experimental: as §1

B1: mAb30 (antibody, V domains shown)
VH: EVRLQQFGPVLVKPGASVKMSCKASGYTFTDYYMNWVKQSHGKSLEWIGIINPYNGDTSYNQKFRGKATLTVDKSSSTAYMELNSLTSEDSAVYYCARYHYGPHLEGYFDVWGTGTTLTVSS
VL: DIVMTQSPKSMSMSVGERVTLSCKASENVGYVSWYQQKPEQSPKLLIYGASNRYTGVPDRFTGSGSATDFTLTISSVQAEDLADYHCGQSYSYPLTFGSGTKLEIK
binding result [1]: binds | binding result [2]: binds

B2: mAb6 (antibody, V domains shown)
VH: EVQLQQSGPVLVKPGASVKMSCKASGYTFTDYYMNWVKQSHGKSLEWIGIINPYSGVTIYNHKFKGKATLTVDKSSNTAYMELNSLTSEDSAVYYCARQDSLLDYAMDYWGQGTSVTVSS
VL: DILMTQSPSSMSVSLGDTVSITCHASQGISGNMGWLQQKPGKSFKGLIYHGANLEDGVPSRFSGSGSGADYSLTISSLESEDFADYYCVQYAQFPYTFGGGTKLEIK
notes: murine hybridoma antibody (culture supernatant)
binding result [3]: binds

B3: BI-764532 (bispecific antibody, human IgG1, kappa, lambda, L234A L235A)
chain 1: DIQMTQSPSAMSASVGDRVTITCRASQGISNYLVWFQQKPGKAPKRLIYAVSSLYSGVPSRFSGSGSGTEFTLTISSLQPEDFATYYCLQHDSYPYTFGQGTKLEIKRTVAAPSVFIFPPSDEQLKSGTASVVCLLNNFYPREAKVQWKVDNALQSGNSQESVTEQDSKDSTYSLSSTLTLSKADYEKHKVYACEVTHQGLSSPVTKSFNRGECGGGGSEGKSSGSGSESKSTEGKSSGSGSESKSTGGGGSQVQLVQSGAEVKKPGASVKVSCKASGYTFTSYYVHWVRQAPGQGLEWMVIINPGGGTTSYAQKFLGRVTMTRDTSTNTVYMELKSLRSEDTAVYYCARGEAVTGNYFYYGMDVWGQGTTVTVSSASTKGPSVFPLAPSSKSTSGGTAALGCLVKDYFPEPVTVSWNSGALTSGVHTFPAVLQSSGLYSLSSVVTVPSSSLGTQTYICNVNHKPSNTKVDKRVEPKSCDKTHTCPPCPAPEAAGGPSVFLFPPKPKDTLMISRTPEVTCVVVDVSHEDPEVKFNWYVDGVEVHNAKTKPREEQYNSTYRVVSVLTVLHQDWLNGKEYKCKVSNKALPAPIEKTISKAKGQPREPQVYTLPPSREEMTKNQVSLWCLVKGFYPSDIAVEWESNGQPENNYKTTPPVLDSDGSFFLYSKLTVDKSRWQQGNVFSCSVMHEALHNHYTQKSLSLSPG
chain 2: EAVVTQEPSLTVSPGGTVTLTCRSSTGAVTTSNYANWVQEKPGQLPRGLIGGTNKRAPWVPARFSGSLLGGKAALTLSGAQPEDEAEYFCALWYSNLWVFGGGTKLTVLGQPKAAPSVTLFPPSSEELQANKATLVCLISDFYPGAVKVAWKADGSPVNTGVETTTPSKQSNNKYAASSYLSLTPEQWKSHRSYSCQVTHEGSTVEKTVAPAECSGGGGSEGKSSGSGSESKSTEGKSSGSGSESKSTGGGGSEVQLVESGGGLVQPGGSLKLSCAASGFTFNTYAMNWVRQAPGKGLEWVARIRSKYNNYATYYADSVKDRFTISRDDSKNTAYLQMNNLKTEDTAVYYCVRHGNFGNSYVSWFAYWGQGTLVTVSAASTKGPSVFPLAPSSKSTSGGTAALGCLVKDYFPEPVTVSWNSGALTSGVHTFPAVLQSSGLYSLSSVVTVPSSSLGTQTYICNVNHKPSNTKVDKRVEPKSCDKTHTCPPCPAPEAAGGPSVFLFPPKPKDTLMISRTPEVTCVVVDVSHEDPEVKFNWYVDGVEVHNAKTKPREEQYNSTYRVVSVLTVLHQDWLNGKEYKCKVSNKALPAPIEKTISKAKGQPREPQVYTLPPSREEMTKNQVSLSCAVKGFYPSDIAVEWESNGQPENNYKTTPPVLDSDGSFFLVSKLTVDKSRWQQGNVFSCSVMHEALHNRFTQKSLSLSPG
IC50, PBMC killing of SHP77/lucG cells (human DLL3 on cells [4]): 44.6 pM | Imax (%), PBMC killing of SHP77/lucG cells (human DLL3 on cells [4]): 97%

B4: mAb98 (antibody, V domains shown)
VH: EVQLVESGGGLVKPGGSLKLSCAASGFTFSDYGIHWVRQAPEKGLEWVAYISSGGYTIYYADTVKGRFTISRDNAKNTLFLQMTSLRSEDTAMYYCARGDYDDIFYTMDYWGQGTSVTVSS
VL: DIQMTQTTSSLSASLGDRVTISCRASRDITKFLNWYQQKPDGTVKLLIYYTSRLHSGVPSRFSGSGSGTDYSLTISNLDQEDIATYFCQQGNTLPWTFGGGTKLDIK
notes: as for B2
binding result [3]: binds

B5: mAb110 (antibody, V domains shown)
VH: EVQLQQSGPVLVKPGASVKMSCKTSGYTFTDYYMNWVKQSHGKSLEWIGIINPYNGGTSYTQKFKGKATLTVDKSSSTAYMELNSLTSEDSTVYFCARHFYDSSYLTYSTMDYWGQGTSVTVSS
VL: NIVMTQSPKSMSMSVGERVTLSCKASENVGIFVSWYQQKPKQSPKLLIYGASNRYTGVPDRFTGSGSATDFTLTISSVQAEDLADYYCGQSHSYPLTFGTGTKLELK
notes: as for B2
binding result [3]: binds | binding result [5]: binds | binding result (human DLL3 on cells [6]): binds
